In article PMC4157582 one finds percent reduction of the interaction efficiency against wild-type Tif4631p data, which are given here for 1 molecule.

This assay deals with TAP-Mud13p (S. cerevisiae) (UniProt Q08920). The assay is described as follows: pull-down.
UniProt Q08920, sequence (Q08920 whole entry): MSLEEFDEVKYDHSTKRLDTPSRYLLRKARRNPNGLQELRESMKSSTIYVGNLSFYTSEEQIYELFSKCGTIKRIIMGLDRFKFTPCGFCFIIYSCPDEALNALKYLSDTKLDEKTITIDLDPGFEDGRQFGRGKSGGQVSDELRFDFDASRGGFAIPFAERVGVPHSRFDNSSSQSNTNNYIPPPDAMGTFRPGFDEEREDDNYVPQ

B1: Tif4631p Δ491-501 (natural protein)
chain: MTDETAHPTQSASKQESAALKQTGDDQQESQQQRGYTNYNNGSNYTQKKPYNSNRPHQQRGGKFGPNRYNNRGNYNGGGSFRGGHMGANSSNVPWTGYYNNYPVYYQPQQMAAAGSAPANPIPVEEKSPVPTKIEITTKSGEHLDLKEQHKAKLQSQERSTVSPQPESKLKETSDSTSTSTPTPTPSTNDSKASSEENISEAEKTRRNFIEQVKLRKAALEKKRKEQLEGSSGNNNIPMKTTPENVEEKGSDKPEVTEKTKPAEEKSAEPEVKQETPAEEGEQGEKGQIKEESTPKVLTFAERLKLKKQQKEREEKTEGKENKEVPVQEETKSAIESAPVPPSEQVKEETEVAETEQSNIDESATTPAIPTKSDEAEAEVEAEAGDAGTKIGLEAEIETTTDETDDGTNTVSHILNVLKDATPIEDVFSFNYPEGIEGPDIKYKKEHVKYTYGPTFLLQFKDKLNVKADAEWVQSTASKIVIPPGMGRGNSSRGHDFRNTSVRNMDDRANSRTSSKRRSKRMNDDRRSNRSYTSRRDRERGSYRNEEKREDDKPKEEVAPLVPSANRWVPKFKSKKTEKKLAPDGKTELLDKDEVERKMKSLLNKLTLEMFDAISSEILAIANISVWETNGETLKAVIEQIFLKACDEPHWSSMYAQLCGKVVKELNPDITDETNEGKTGPKLVLHYLVARCHAEFDKGWTDKLPTNEDGTPLEPEMMSEEYYAAASAKRRGLGLVRFIGFLYRLNLLTGKMMFECFRRLMKDLTDSPSEETLESVVELLNTVGEQFETDSFRTGQATLEGSQLLDSLFGILDNIIQTAKISSRIKFKLIDIKELRHDKNWNSDKKDNGPKTIQQIHEEEERQRQLKNNSRSNSRRTNNSSNRHSFRRDAPPASKDSFITTRTYSQRNSQRAPPPKEEPAAPTSTATNMFSALMGESDDEE
modifications: 35S-labelled
B1 registered a percent reduction of the interaction efficiency against wild-type Tif4631p above 30%.
